This note sets out measurements from patent publication US20190025321A1 (WHITEHEAD INSTITUTE FOR BIOMEDICAL RESEARCH, published 2019).

First the molecules themselves.
B1: HA-metap2 (other, UniProt P50579 1-478, looked up, not shown: small tags and cut ends)
chain: MAGVEEVAASGSHLNGDLDPDDREEGAASTAEEAAKKKRRKKKKSKGPSAAGEQEPDKESGASVDEVARQLERSALEDKERDEDDEDGDGDGDGATGKKKKKKKKKRGPKVQTDPPSVPICDLYPNGVFPKGQECEYPPTQDGRTAAWRTTSEEKKALDQASEEIWNDFREAAEAHRQVRKYVMSWIKPGMTMIEICEKLEDCSRKLIKENGLNAGLAFPTGCSLNNCAAHYTPNAGDTTVLQYDDICKIDFGTHISGRIIDCAFTVTFNPKYDTLLKAVKDATNTGIKCAGIDVRLCDVGEAIQEVMESYEVEIDGKTYQVKPIRNLNGHSIGQYRIHAGKTVPIVKGGEATRMEEGEVYAIETFGSTGKGVVHDDMECSHYMKNFDVGHVPIRLPRTKHLLNVINENFGTLAFCRRWLDRLGESKYLMALKNLCDLGIVDPYPPLCDIKGSYTAQFEHTILLRPTCKEVVSRGDDY
notes: Negative control of the co-immunoprecipitations; also called metap2 control protein

Assay [1] has as its target T1, endogenous GATOR2 complex (Seh1L, WDR59, WDR24, Sec13 and Mios) (human, UniProt Q9NXC5 1-875; Q96S15 1-790; Q6PJI9 1-974; P55735 2-322; Q96EE3 1-360, limits assumed).
T1 construct: Five-subunit complex; In most blots its presence is read from the mios band; also called detected by mios
The assay is described as follows: co-immunoprecipitation, anti-HA IP from transfected HEK-293T cells starved of all amino acids 50 min, immunoblot for endogenous mios. The method, then:
FIG. 8A depicts validation of the anti-serum used to detect endogenous CASTOR2. Lysates were prepared from HEK-293T lines stably expressing the indicated shRNAs and analyzed by immunoblotting for levels of indicated proteins. FIG. 8B depicts validation of the anti-serum used to detect endogenous CASTOR1. Lysates were prepared from HEK-293T stably lines expressing the indicated shRNAs and analyzed as in (8C). The arrow denotes the band corresponding to endogenous CASTOR1. […] HEK-293T cells were cotransfected with the indicated cDNAs in expression vectors, starved of all amino acids for 50 minutes, and anti-HA immunoprecipitates were analyzed as in FIG. 1D. […] HEK-293T cells were cotransfected with the indicated cDNAs in expression vectors, starved of all amino acids for 50 minutes, and anti-HA immunoprecipitates were analyzed as in FIG. 1D.
Background: Immunoblotting shows a protein as a band on a membrane.

The target in assay [2] is T2, GSK3β (human, UniProt P49841).
T2 construct: endogenous, untagged; also called endogenous GSK3β, control immunoprecipitation
The assay can be described thus: control immunoprecipitation with an anti-GSK3β antibody from HEK-293T cells starved of or restimulated with amino acids. The method, then: FIG. 9A, FIG. 9B, FIG. 9C, FIG. 9D and FIG. 9E depict arginine regulates the interaction of GATOR2 with CASTOR1-containing complexes in cells and in vitro. […] HEK-293T cells cotransfected with the indicated cDNAs and stably expressing the indicated shRNAs were deprived of amino acids in the cell media for 50 min. Anti-HA immunoprecipitates were analyzed by immunoblotting for the indicated proteins. […] HEK-293T cells were starved or restimulated with amino acids, and immunoprecipitates were prepared from these cells using an antibody directed against GSK3β or WDR24. Immunoprecipitates were analyzed by immunoblotting for the indicated proteins. […] Stable expression lines of HEK-293T cells stably expressing the denoted proteins were cotransfected with the indicated cDNAs and treated as in FIG. 3A. Anti-HA immunoprecipitates were analyzed by immunoblotting for the levels of indicated proteins. FIG. 9D depicts deprivation of arginine, but not leucine, is sufficient to promote the association of endogenous GATOR2 with recombinant CASTOR1-CASTOR2 heterodimers. HEK-293T cells cotransfected with the indicated cDNAs were treated and analyzed as in FIG. 3C. […] Anti-HA immunoprecipitates were prepared and analyzed as in FIG. 3E.

Assay [3] has as its target B1. The assay can be described thus: co-immunoprecipitation, anti-HA IP from transfected HEK-293T cells.
Assay [4] has as its target T1, endogenous GATOR2 complex (Seh1L, …). The assay is described as follows: co-immunoprecipitation, anti-FLAG IP of GATOR2 from a HEK-293T line with endogenously FLAG-tagged WDR59, immunoblot for endogenous CASTOR1. The method, then: (§1) FIG. 3A, FIG. 3B, FIG. 3C, FIG. 3D, FIG. 3E and FIG. 3F depict arginine regulates the interaction of GATOR2 with CASTOR1-homodimers and CASTOR1-CASTOR2 heterodimers in cells and in vitro. […] HEK-293T cells cotransfected with the indicated cDNAs were deprived of amino acids for 50 min or starved and restimulated with amino acids for 10 min. Anti-HA immunoprecipitates and cell lysates were analyzed by immunoblotting for levels of the indicated proteins. […] A HEK-293T cell line expressing endogenously FLAG-tagged WDR59 was treated as in (3A) and anti-FLAG immunoprecipitates were analyzed by immunoblotting for the indicated proteins. […] Cells were deprived of leucine, arginine, or all amino acids for 50 min, and restimulated for 10 min with the respective amino acids where indicated. Anti-HA immunoprecipitates were prepared and analyzed as in (3A). […] Anti-HA immunoprecipitates were prepared from HEK-293T cells expressing the indicated cDNAs and deprived of amino acids for 50 min. Indicated amino acids were added directly to the immunoprecipitates, which after re-washing, were analyzed as in (3A). […] The experiment was performed and analyzed as in (3D), except using the indicated concentrations of arginine. […] Anti-HA immunoprecipitates were prepared and analyzed as in (3A).

Assay [5] deals with B1. The assay can be described thus: co-immunoprecipitation, anti-HA IP from transfected HEK-293T cells, immunoblot for endogenous CASTOR1.
The target in assay [6] is complete GATOR2 complex, recombinant (WDR24-FLAG, WDR59, mios, sec13, seh1L co-expressed) (UniProt Q96S15 1-790; Q6PJI9 1-974; Q9NXC5 1-875; P55735 1-322; Q96EE3 1-360, limits assumed). The assay is described as follows: co-immunoprecipitation, anti-FLAG IP (bait WDR24-FLAG) from co-transfected HEK-293T cells, immunoblot for HA-tagged CASTOR1. From the text:
FIG. 7A, FIG. 7B, FIG. 7C, FIG. 7D, FIG. 7E and FIG. 7F depicts CASTOR1 and CASTOR2 homologs are present in vertebrates and invertebrates, and the CASTORs and Sestrins bind to distinct sites on GATOR2. […] Sequence alignments are colored with respect to sequence identity as in FIG. 1C. The first and second ACT domains are annotated above the alignment with blue and orange bars, respectively. […] The sequence alignment is annotated as in (7B). FIG. 7E depicts the GATOR2 components WDR24, mios, and seh1L form a minimal complex that is sufficient to co-immunoprecipitate CASTOR1. HEK-293T cells were cotransfected with the indicated cDNAs, and anti-FLAG immunoprecipitates were analyzed as in FIG. 1D.
Where indicated, for transient cotransfection experiments, 2 million HEK-293T cells were plated in 10 cm dishes and transfected 24 hrs later using the polyethylenimine method (Boussif et al., 1995) with the indicated pRK5-based expression vectors: 300 ng HA-metap2, 40 ng CASTOR1-HA, 80 ng CASTOR1-FLAG, 40 ng CASTOR2-HA, 80 ng CASTOR2-FLAG; 100 ng WDR24-FLAG, 100 ng WDR59, 100 ng mios, 150 ng sec13, 150 ng seh1L, 10 ng or 40 ng or 100 ng or 600 ng of myc-Sestrin2 or myc-CASTOR2; 2 ng FLAG-56K1, 15 ng or 60 ng HA-CASTOR2, 75 ng and 175 ng of CASTOR1-HA. The total amount of plasmid DNA in each transfection was normalized to 5 μg with empty pRK5. […]

Assay [7] concerns the target T1, endogenous GATOR2 complex (Seh1L, …). The assay is described as follows: co-immunoprecipitation, anti-HA IP from HEK-293T cells deprived 50 min of all amino acids, leucine or arginine, or restimulated 10 min; immunoblot for endogenous mios. The method, then:
as §1

T2 sequence (P49841 whole entry): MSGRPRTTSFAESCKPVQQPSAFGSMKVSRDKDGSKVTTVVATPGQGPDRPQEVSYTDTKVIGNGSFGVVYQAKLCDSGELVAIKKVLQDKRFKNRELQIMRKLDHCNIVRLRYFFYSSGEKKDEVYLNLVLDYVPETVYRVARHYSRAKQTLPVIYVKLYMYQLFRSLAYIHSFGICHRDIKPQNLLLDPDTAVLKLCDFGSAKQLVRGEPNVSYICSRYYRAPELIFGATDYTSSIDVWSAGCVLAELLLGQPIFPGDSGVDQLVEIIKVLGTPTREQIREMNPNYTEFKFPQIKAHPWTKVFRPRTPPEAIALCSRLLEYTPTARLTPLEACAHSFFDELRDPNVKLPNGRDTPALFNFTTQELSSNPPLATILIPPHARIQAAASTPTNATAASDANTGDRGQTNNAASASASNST

Take B1: in assay [1], the binding result was “no binding”.

B2: endogenous CASTOR2 (other, human, UniProt A6NHX0 1-329, looked up)
chain: MELHILEHRLQVASVAKESIPLFTYGLIKLAFLSSKTRCKFFSLTETPEDYTIIVDEEGFLELPSSEHLSVADATWLALNVVSGGGSFSSSQPIGVTKIAKSVIAPLADQNISVFMLSTYQTDFILVRERDLPFVTHTLSSEFTILRVVNGETVAAENLGITNGFVKPKLVQRPVIHPLSSPSNRFCVTSLDPDTLPAVATLLMDVMFYSNGVKDPMATGDDCGHIRFFSFSLIEGYISLVMDVQTQQRFPSNLLFTSASGELWKMVRIGGQPLGFDECGIVAQISEPLAAADIPAYYISTFKFDHALVPEENINGVISALKVSQAEKH
notes: Detected with an anti-CASTOR2 antiserum; also called GATSL2
Regarding B2, the binding result in assay [2] and in assay [3] was “no binding” in each case.

B3: endogenous CASTOR1 (other, human, UniProt Q8WTX7 1-329, looked up)
chain: MELHILEHRVRVLSVARPGLWLYTHPLIKLLFLPRRSRCKFFSLTETPEDYTLMVDEEGFKELPPSEFLQVAEATWLVLNVSSHSGAAVQAAGVTKIARSVIAPLAEHHVSVLMLSTYQTDFILVREQDLSVVIHTLAQEFDIYREVGGEPVPVTRDDSSNGFPRTQHGPSPTVHPIQSPQNRFCVLTLDPETLPAIATTLIDVLFYSHSTPKEAASSSPEPSSITFFAFSLIEGYISIVMDAETQKKFPSDLLLTSSSGELWRMVRIGGQPLGFDECGIVAQIAGPLAAADISAYYISTFNFDHALVPEDGIGSVIEVLQRRQEGLAS
notes: Detected with an anti-CASTOR1 antiserum; also called GATSL3
With B3, the figures for the binding result in assay [4] and in assay [5] were “binds” and “no binding”, respectively.

B4: recombinant CASTOR1 (Cellular Arginine Sensor for mTORC1; protein encoded by the GATS protein-like 3 gene) (other, human, UniProt Q8WTX7 1-329, looked up, not shown: small tags and cut ends)
chain: MELHILEHRVRVLSVARPGLWLYTHPLIKLLFLPRRSRCKFFSLTETPEDYTLMVDEEGFKELPPSEFLQVAEATWLVLNVSSHSGAAVQAAGVTKIARSVIAPLAEHHVSVLMLSTYQTDFILVREQDLSVVIHTLAQEFDIYREVGGEPVPVTRDDSSNGFPRTQHGPSPTVHPIQSPQNRFCVLTLDPETLPAIATTLIDVLFYSHSTPKEAASSSPEPSSITFFAFSLIEGYISIVMDAETQKKFPSDLLLTSSSGELWRMVRIGGQPLGFDECGIVAQIAGPLAAADISAYYISTFNFDHALVPEDGIGSVIEVLQRRQEGLAS
notes: Expressed from pRK5 vectors in HEK-293T cells; which tag was used depends on the experiment; also called GATSL3; CASTOR1-HA
Consider B4, for which, in assay [6], the binding result is “binds”.

B5: CASTOR1 homodimer (other, human, not shown: small tags and cut ends)
chain 1: MELHILEHRVRVLSVARPGLWLYTHPLIKLLFLPRRSRCKFFSLTETPEDYTLMVDEEGFKELPPSEFLQVAEATWLVLNVSSHSGAAVQAAGVTKIARSVIAPLAEHHVSVLMLSTYQTDFILVREQDLSVVIHTLAQEFDIYREVGGEPVPVTRDDSSNGFPRTQHGPSPTVHPIQSPQNRFCVLTLDPETLPAIATTLIDVLFYSHSTPKEAASSSPEPSSITFFAFSLIEGYISIVMDAETQKKFPSDLLLTSSSGELWRMVRIGGQPLGFDECGIVAQIAGPLAAADISAYYISTFNFDHALVPEDGIGSVIEVLQRRQEGLAS
chain 2: MELHILEHRVRVLSVARPGLWLYTHPLIKLLFLPRRSRCKFFSLTETPEDYTLMVDEEGFKELPPSEFLQVAEATWLVLNVSSHSGAAVQAAGVTKIARSVIAPLAEHHVSVLMLSTYQTDFILVREQDLSVVIHTLAQEFDIYREVGGEPVPVTRDDSSNGFPRTQHGPSPTVHPIQSPQNRFCVLTLDPETLPAIATTLIDVLFYSHSTPKEAASSSPEPSSITFFAFSLIEGYISIVMDAETQKKFPSDLLLTSSSGELWRMVRIGGQPLGFDECGIVAQIAGPLAAADISAYYISTFNFDHALVPEDGIGSVIEVLQRRQEGLAS
notes: also called CASTOR1-HA with CASTOR1-FLAG; CASTOR1-containing dimers
With B5, the binding result in assay [7] was “binds”.
